Data taken from patent publication US20040209839, “Human peroxisome proliferator activated receptor gamma” (published 2004).

Key:
[1] = target: hPPARgamma/hRXRalpha heterodimer (Homo sapiens, UniProt P37231;P19793 P37231:31-505,P19793:1-462); assay: EMSA; strong retarded complex; details: tags: hPPARgamma in vitro translated, hRXRalpha baculovirus/Sf21 expressed, label: 32P end
hPPARgamma = hPPARgamma (Homo sapiens, UniProt P37231 SEQ:20-494); assay: EMSA; hPPARgamma alone, no complex; details: tags: T3 coupled reticulocyte lysate (Promega), label: 32P end
Chain of hPPARgamma (P37231 31-505): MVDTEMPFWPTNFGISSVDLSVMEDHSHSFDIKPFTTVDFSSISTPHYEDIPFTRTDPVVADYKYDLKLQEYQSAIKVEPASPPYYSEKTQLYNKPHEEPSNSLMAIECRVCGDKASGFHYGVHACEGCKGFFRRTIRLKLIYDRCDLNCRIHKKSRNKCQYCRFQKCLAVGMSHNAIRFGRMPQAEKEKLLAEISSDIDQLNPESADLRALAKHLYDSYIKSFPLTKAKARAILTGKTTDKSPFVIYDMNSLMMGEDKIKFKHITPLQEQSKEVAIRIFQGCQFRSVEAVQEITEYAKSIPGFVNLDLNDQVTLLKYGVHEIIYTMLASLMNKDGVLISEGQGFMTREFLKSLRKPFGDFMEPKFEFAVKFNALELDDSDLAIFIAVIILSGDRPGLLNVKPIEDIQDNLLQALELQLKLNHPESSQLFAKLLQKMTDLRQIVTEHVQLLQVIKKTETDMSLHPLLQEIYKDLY

Chain of hPPARgamma/hRXRalpha heterodimer (P37231 31-505, chain 1 of 2): as the sequence (P37231 31-505) above
Chain of hPPARgamma/hRXRalpha heterodimer (P19793 whole entry, chain 2 of 2): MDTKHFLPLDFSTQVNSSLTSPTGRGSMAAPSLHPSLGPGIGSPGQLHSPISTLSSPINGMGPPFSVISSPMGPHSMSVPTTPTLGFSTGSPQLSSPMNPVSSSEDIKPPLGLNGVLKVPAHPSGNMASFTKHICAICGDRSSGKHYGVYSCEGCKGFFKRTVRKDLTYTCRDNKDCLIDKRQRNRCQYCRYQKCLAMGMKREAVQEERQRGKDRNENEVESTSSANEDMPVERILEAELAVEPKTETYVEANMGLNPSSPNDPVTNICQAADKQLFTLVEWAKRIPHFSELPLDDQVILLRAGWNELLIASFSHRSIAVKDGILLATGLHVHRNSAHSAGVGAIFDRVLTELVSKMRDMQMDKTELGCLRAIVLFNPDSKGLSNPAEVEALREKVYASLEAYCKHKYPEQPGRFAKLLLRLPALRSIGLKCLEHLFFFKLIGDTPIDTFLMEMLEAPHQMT

B1: AOX PPRE (dsDNA)
DNA 1: CTAGCGATATCATGACCTTTGTCCTAGGCCTC
DNA 2: CTAGGAGGCCTAGGACAAAGGTCATGATATCG
B1: binds ([1]; 5' CTAG overhangs); no binding (hPPARgamma; 5' CTAG overhangs).

B2: hydratase (bifunctional enzyme) PPRE (dsDNA)
DNA 1: GATCCCTTTGACCTATTGAACTATTACCTACATTA
DNA 2: TAATGTAGGTAATAGTTCAATAGGTCAAAGGGATC
B2: binds [1]; no binding (hPPARgamma).

B3: ApoA1 A site (dsDNA)
DNA 1: GATCCCCACTGAACCCTTGACCCCTGCCCTGCAGCA
DNA 2: TGCTGCAGGGCAGGGGTCAAGGGTTCAGTGGGGATC
B3: binds [1]; no binding (hPPARgamma).
